Experimental findings from patent publication US20250215105A1, “ANTI-CD39 ANTIBODY” (BrightPath Biotherapeutics Co., Ltd., priority 2022, published 2025) are described below.

Assay [1] has as its system Cynomolgus monkey CD39. Kind of assay: CD39 binding analysis (FCM) using Cynomolgus monkey CD39-overexpressing cells. Particulars: 293T-cynoCD39 cells, 2 μg/ml antibody. The procedure: Binding to target antigen-expressing cells was analyzed using Cynomolgus monkey CD39-overexpressing cells. This analysis was used to check cross-reactivity. The Cynomolgus monkey CD39-overexpressing cells were generated using a lentiviral vector system (OriGene, PS100069). Lentiviral particles carrying the Cynomolgus monkey CD39 gene (Gene ID: 102132860) as the target gene together with the puromycin resistance gene were generated and used to infect HEK293T cells therewith. Then, the cells were cultured in the presence of puromycin. HEK293T cells (293T-cynoCD39) in which the target gene was integrated into the genome and which became positive for Cynomolgus monkey CD39 were collected and used for FCM analysis. The cells were reacted with 2 μg/ml test antibody or isotype control antibody, stained with a fluorescence-labeled secondary antibody, and evaluated for antibody binding based on the fluorescence intensity obtained by flow cytometry analysis.

For assay [2], the target named is T1, Human CD39 antigen (Homo sapiens, UniProt P49961).
T1 sequence (P49961 1-510): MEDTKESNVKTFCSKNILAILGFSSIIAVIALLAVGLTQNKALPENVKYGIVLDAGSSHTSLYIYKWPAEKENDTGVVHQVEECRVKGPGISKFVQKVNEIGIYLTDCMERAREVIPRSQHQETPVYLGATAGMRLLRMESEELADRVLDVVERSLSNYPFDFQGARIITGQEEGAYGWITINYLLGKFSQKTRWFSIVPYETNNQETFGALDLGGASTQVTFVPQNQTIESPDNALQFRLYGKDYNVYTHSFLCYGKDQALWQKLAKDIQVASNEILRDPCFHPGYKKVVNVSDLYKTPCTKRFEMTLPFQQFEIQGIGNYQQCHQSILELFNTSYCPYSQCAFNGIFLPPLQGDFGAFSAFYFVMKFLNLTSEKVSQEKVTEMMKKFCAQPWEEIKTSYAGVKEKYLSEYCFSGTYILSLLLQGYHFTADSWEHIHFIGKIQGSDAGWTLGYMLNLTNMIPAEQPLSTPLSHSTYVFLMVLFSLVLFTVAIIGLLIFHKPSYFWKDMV
Kind of assay: affinity by surface plasmon resonance (SPR) analysis. The conditions noted are these: Biacore 8K, 1:1 binding model. The procedure:
Kinetics of each antibody against their target antigen were measured using Biacore 8K (Cytiva). Each antibody to be measured was immobilized on a sensor chip (CM5) using a Mouse Antibody Capture Kit, type 2 (Cytiva, 29215281) for mouse antibodies and a Human Antibody Capture Kit, Type 2 (Cytiva, 26234600) for chimeric and humanized antibodies, respectively. Human CD39 antigen was subjected to 4-step dilution from […] to prepare each solution, the contact time was set to 120 seconds, the dissociation time was set to 600 seconds, and the flow rate was set to 30 μl/min. Under these conditions, HBS-EP+ was used as the running buffer, and each sample was then analyzed using the 1:1 binding model of multi-cycle kinetics.

Assay [3] deals with T2, human CD39 (Homo sapiens, UniProt P49961).
T2 sequence (P49961 1-510): T1 sequence (P49961 1-510)
Kind of assay: activity to inhibit CD39 enzyme (ATP hydrolysis by CD39-expressing cells, CellTiter-Glo). Format: cell-based. Also noted: CD39^hi-expressing human melanoma cell line SK-MEL-28 (ATCC, HTB-72) or human ovarian adenocarcinoma cell line OAW-42; endogenous in cells; host or cells: SK-MEL-28 (ATCC, HTB-72) or OAW-42 (CLS, 300304). Particulars: SK-MEL-28 or OAW-42 cells, ATP 10 μM. The procedure: Two thousand SK-MEL-28 cells (ATCC, HTB-72), a CD39′-expressing line, suspended in 50 μl EMEM (Fujifilm, 055-08975) were seeded onto a 96-well V-bottom plate and incubated at 37° C. for 30 minutes with 150 μl of culture supernatant of single B cells. The cells were washed once with DPBS (Nacalai Tesque, 14249-24), then 100 μl of 5 μM ATP was added per well, and the mixture was incubated at 20° C. for 30 minutes. After centrifugation, 50 μl of the supernatant was separated, 50 μl CellTiter-Glo (Promega, G9243) was added and stirred, and after incubation at room temperature for 10 min, the amount of ATP was measured by chemiluminescence while using a microplate reader. The ability of B cell culture supernatant to inhibit CD39-mediated ATP hydrolysis was evaluated based on the amount of residual ATP.
The antibodies obtained in the above experiments were used to measure activity to inhibit CD39 enzyme by using the following procedure. […] After centrifugation, 50 μl of the supernatant was separated, 50 μl CellTiter-Glo was added and stirred, and after incubation at room temperature for 10 minutes, the level of chemiluminescence was measured using a microplate reader. Based on the amount of ATP consumed by SK-MEL-28 or OAW-42 cells, the ability of the antibody to inhibit CD39-mediated ATP hydrolysis was evaluated. […]
Background: Cellular ATP, detected with luciferase, serves as a proxy for viable cell number.

The target of assay [4] is T2, human CD39. The experiment in a line: CD39 binding analysis (FCM) using human CD39-overexpressing cells. The conditions noted are these: 293T-hCD39 or Jurkat-hCD39 cells. The procedure: 3.1 CD39 binding analysis (FCM analysis) (using human CD39) Binding to target antigen-expressing cells was analyzed by FCM analysis using human CD39-overexpressing cells. The human CD39-overexpressing cells were generated using a lentiviral vector system (OriGene, PS100069). Lentiviral particles carrying the human CD39 gene (Gene ID: 953) as the target gene together with the puromycin resistance gene were generated and used to infect HEK293T or Jurkat cells therewith. Then, the cells were cultured in the presence of puromycin. HEK293T or Jurkat cells ([…] or Jurkat-hCD39) in which the target gene was integrated into the genome and which became positive for human CD39 were collected and used for FCM analysis. Test or isotype control antibodies at a final concentration of 2 μg/mL or at the concentrations indicated in the figure were reacted with 1×10^5 cells for 15 minutes at 4° C., followed by washing twice with 0.5% BSA, 2 mM EDTA, and D-PBS. After washing, a fluorescent-labeled secondary antibody (anti-human IgG Fc, HP6017) was added, and the cells were stained at 4° C. for 15 minutes under light-shielded conditions, followed by washing twice in a similar manner. After addition of 7AAD (BioLegend, 420404), fluorescence intensity was measured using a flow cytometer (FACSVerse, BD). Antibody binding was evaluated based on the fluorescence intensity obtained.

The subject of assay [5] is human lung cancer cell line NCI-H292. The experiment in a line: anti-tumor activity: NCI-H292 growth with stimulated PBMCs and ATP (IncuCyte). Format: cell-based. The conditions noted are these: NCI-H292 with PBMCs E/T 2, ATP 500 μM. On the procedure:
The human lung cancer cell line NCI-H292 having red fluorescent protein (RFP) was seeded on a 96-well plate and cultured overnight. The next day, after removal of the medium, IL-2 (Miltenyi, 130-097-745) at a final concentration of 30 IU as suspended in X-VIVO-15™ medium (Lonza, 04-418Q) and an anti-human CD39 antibody or isotype control antibody at a final concentration of 0.3 to 100 μg/mL were added and the mixture was incubated at 37° C. for 30 minutes. Then, PBMCs from healthy volunteers stimulated with Dynabeads™ Human T-Activator CD3/CD28 (VERITAS, DB11131) for 10 days were added at an E/T ratio of 2 and the mixture was incubated at 37° C. for 30 minutes. […] This made it possible to evaluate the anti-tumor activity of the antibody due to its ability to promote the cytotoxic activity of PBMCs.

B1: P4_sc: anti-CD39 scFvFc (Fc silent) from phage display (antibody, V domains shown)
VH: QVQLKESGPSLVQPSQSLSITCTVSGFSLTNYGVHWVRQSPGKGLEWLGVILRRGSTDYNAAFMSRLSITKDNSKSQVFFKMNSLQADDTAIYYCAKTAVVAGDYFDYWGQGTTLTVSS
VL: DIVMTQSHKFMSTSVGDRVSVTCKASQNVGTNVAWYQQKPGQSPKALIYSASYRYSGVPDRFTGSGSGTDFTLTISNVQSEDLAEYFCQQYNSYPLTFGTGTKLEIK
modifications: left off: another chain or arm of the molecule; a dimerising Fc or GST; small tags and cut ends
notes: anti-CD39 scFvFc (Fc silent) from phage display
Turning to B1, the “binding to monkey CD39” value in assay [1] is listed as “bound to monkey CD39”. In assay [2], the “affinity for human CD39 (KD)” value was “favorable affinity”. Moreover, the CD39 inhibitory activity entry in assay [3] is “activity to inhibit human CD39”. For the same molecule, the “affinity for human CD39 on the cell surface” value in assay [4] was “favorable affinity”.

B2: T-31414h1lala: anti-CD39 antibody with variable regions described in US2019/0062448, IgG1-lala constant region (antibody, V domains shown)
VH: QVQLVQSGAEVKKPGASVKVSCKASGYTFKSYEMHWVRQAPGQGLEWMGRINPSVGSTWYAQKFQGRVIMIRDTSTSTVYMELSSLRSEDTAVYYCARGKREGGTEYLRNWGQGTLVTVSS
VL: EIVLIQSPGILSLSPGERATLSCRASQSVSSSYLAWYQQKPGQAPRLLIYGASSRATGIPDRFSGSGSGTDFTLTISRLEPEDFAVYYCQQYHSYITFGGGTKVEIK
modifications: IgG1 LALA constant regions; T-31414 VH; T-31414 VL
notes: anti-CD39 antibody with variable regions described in US2019/0062448, IgG1-lala constant region
Regarding B2, the “growth rate of cancer cells” value in assay [5] is given as “approximately 0.9”.

B3: HuP4_IB_sc: humanized scFvFc obtained by humanizing P4_sc (antibody, V domains shown)
VH: QVQLLESGPELVKPSATLSITCTVSGFSLTNYGVHWIRQAPGKGLEWLGVILRRGSTDYNAAFMSRFTISKDNSKNQVYFKLRSVTAEDTAVYYCAKTAVVAGDYFDYWGQGTMVTVSS
VL: DIQMTQSHSTLSLSVGDRVTITCKASQNVGTNVAWYQQKPGQPPKALIYSASYRYSGVPSRFSGSGSGTDFTLTISSVQAEDVAVYYCQQYNSYPLTFGPGTKLEIK
modifications: left off: another chain or arm of the molecule; a dimerising Fc or GST; small tags and cut ends
notes: humanized scFvFc obtained by humanizing P4_sc
Take B3: in assay [3], the CD39 inhibitory activity entry is “favorable CD39 inhibitory activity”.
